Our source for the Kd values is patent publication US20140155331A1 (COUNCIL OF SCIENTIFIC AND INDUSTRIAL RESEARCH, published 2014).

Test [1] concerns the target T1, S100B.
T1 chain: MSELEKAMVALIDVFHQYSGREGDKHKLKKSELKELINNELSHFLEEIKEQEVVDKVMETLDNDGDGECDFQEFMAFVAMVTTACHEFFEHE
The test can be described thus: fluorescence anisotropy; 5 nM fluorescein labeled peptide titrated with S100B in 50 mM Tris-HCl pH 7.5, 50 mM NaCl, 10 mM CaCl2, 25 C. For orientation: Polarisation of emitted light reports the rotation of a fluorescent probe.

In test [2] the target is T1, S100B. The test can be described thus: fluorescence anisotropy, N-terminal fluorescein labeled peptide.

Where no end group is shown, it is not given here. [ ]: non-standard residue; d: D form. fluorescein = N-terminal 5(6)-carboxyfluorescein label; Aib = CC(C)(N)C(=O)O; Ahx = NCCCCCC(=O)O

B1: pBBD-TRTK (branched dimeric Aib substituted TRTK) (peptide)
peptide: TRTKIDW[Aib]KIL[Aib]KAH[Ahx]
chain: Lys-NH2
modifications: also: branched dimer: two identical arms on one branching Lys (chain 2)
notes: This is a branched peptide with two identical arms on one lysine; also called bivalent helically branched peptide
The term Kd denotes the constant that tells how readily two partners part at equilibrium. Low values mean tighter binding, high ones weaker binding. B1: the affinity in the test with S100B [1], expressed as Kd, was 0.0077 µM.

B2: pBM-TRTK (Aib substituted TRTK monomer peptide) (peptide)
peptide: fluorescein-TRTKIDW[Aib]KIL[Aib]GGGCG-NH2
notes: The peptide is derived from TRTK-12 (CapZ residues 265-276) with Aib at N8 and S12; also called pBM-TRK
For the molecule B2, the Kd with S100B [2] is approximately 0.3 µM.
